Results reported in patent publication US20150148405A1 (Johns Hopkins, published 2015).

Target: ribosomal protein S6 (RPS6) (mouse, UniProt P62754 1-249)
Assay: co-immunoprecipitation with GW182 antiserum from hippocampal neuron lysates, immunoblot
Method: Proteins and mRNAs associated with P-body component GW182 were isolated through immunoprecipitation of GW182 by modification of previously published protocols (Keene et al., 2006; Moser et al., 2009). Primary cultures of mouse hippocampal neurons (DIV 14-15) were incubated in serum-reduced medium (0.5% B27 supplement) for 2 hours, followed by […] Actinomycin-D for […] and mock or BDNF-stimulation for 30˜60 min. Cell lysates were harvested in polysomal lysis buffer (100 mM KCl, 5 mM MgCl₂, 10 mM HEPES pH 7.0, 0.5% NP-40) with protease inhibitor cocktail and freshly added 20 mM EDTA, 1 mM DTT, 100 U/mL RNase inhibitor (RNaseOut, Invitrogen) and 400 μM Vanadyl ribonucleoside complexes (SIGMA). Lysates were centrifuged and the supernatants pre-cleared by one-hour incubation with recombinant protein G beads pre-washed in NT2 buffer (50 mM Tris-HCl pH 7.4, 150 mM NaCl, 1 mM MgCl₂, 0.05% NP-40). Antibody coating of protein G beads was carried out with antiserum against GW182 (18033, gift of M. Fritzler) or control isotype-specific serum in NT2 buffer plus protease inhibitor for 4 hours after blocking with NT2 buffer plus 5% BSA and 1 mg/mL heparin for 1 hour. For immunoprecipitation (IP), equal amounts of lysate protein (2-5 mg) was incubated with antibody-coated beads and tumbled for 4 hours at 4° C., followed by washing. […]

binding result: no binding
B1: GW182 (other)
chain: MRELEAKATKDVERNLSRDLVQEEEQLMEEKKKKKDDKKKKEAAQKKATEQKIKVPEQIKPSVSQPQPANSDNGTSTATSTNNNAKRATASNQQPPPPQQQQPQQEQQQQQPQALPRYPREVPPRFRHQEHKQLLKRGQHFPVIAANLGSAVKVLNSQSESSAVTNQQPQNNGEVQNSKSQSDINHNTSGSHYENCQRGPVSSTSDCSTSCKNAVNDLLEKEAWPSAPGSDPELAPECIDADSASNSESERNITVMASGNTGGEKDGLRNSTGLGSQSKFVVGSSSNNVGHGSSTGPWGFPHGALISTCQVSVDAPESKPESSNNRMNAWGTVSSSSNGGLNPSTLNSASNHGAWPVLENNGLALKGPVGSGSSGINIQCSTIGQMPNNQNINSKVSGSSTHGTWGSLQETCEPEVSGTQKVSFSGQPQNITTETTGPNNTTNFMTSSLPNSGSVQNNELPTSNPGAWRVSTMNHPQIQAPSVMNGTSLSHLSNGESKTGGSYGTTWGAYGSNYSGDKCAGPNGQANGDTVNATLMQPGINGPMGTNFQVNTNKGGGVWEPGTVNSQSSPWGSGNGANSGGSRRGWGSPAQNTGTGLSSVEWNKLPSNQHSNDSANGNGKKLTNGWKSTEEDDQGSATSQTNEQNSVWAKAGGTVESDGSAESTGRLEEKVTGESQSRDRRKIDQHTLLQSIVNRTDLDPRVLSNSGWGQTPIKQNTAWDTETSPRGERKTDNGTEAWGSSATQTFNSGACTDKTSPNSNDTSSVSGWGDPKPTLRWGDSKGSNCQGGWEDDSAATGMIKSNQWGGCKEDKSTWNDSQKSKQGWGDGQKSSQGWSISAGDNWGESSRSNHWGEANKKSSSGGSDSDRSISGWNELGKTSSFTWGNNINPNNSSGWDESSKPNSSQGWGDPPKCNQSLGWGDSSKPVSSPDWNKQQDIVGSWGIPPATSKPPGTGWLGGPIPAPAKEEEPTGWEEPSPESIRRKMEIDDGTSAWGDPSKYNYKNVNMWNKNIPEASGRSDQQAQMHRLLPAASAVSSKETSSGSGWGEPWAEPSTPATTVDNGTSAWGKPIDSGPSWGEPITAASNASTWGSSSVGPQSLSKSGPKSMQDGWCGDDMPLPGSRPTGWEEEEDVEIGMWNSNSSQELNSSLNWPPYTKKMSSKGLSGKKRRRERGMMKGGNKQEDAWINPFVKQFSNISFSRDSPEENVQSNKMDLSGGMLQDKRMEIDKHSLNIGDYNRTVGKGPGSRPQISKESSMERNPYFDKNGNPNMFGVGNTAAQPRGMQQPPAQPLSSSQPNLRAQVPPPLLSPQVPVSLLKYAPNNGGLNPLFGPQQVAMLNQLSQLNQLSQISQLQRLLAQQQRAQSQRSAPSANRQQQDQQGRPLSVQQQMMQQSRQLDPSLLVKQQTPPSQQPLHQPAMKSFLDNVMPHTTPELQKGPSPVNAFSNFPIGLNSNLNVNMDMNSIKEPQSRLRKWTTVDSMSVNTSLDQNSSKHGAISSGFRLEESPFVPYDFMNSSTSPASPPGSIGDGWPRAKSPNGSSSVNWPPEFRPGEPWKGYPNIDPETDPYVTPGSVINSLSINTVREVDHLRDRNSGSSSSLNTTLPSTSAWSSIRASNYNVPLSSTAQSTSARNSDSKLTWSPGSVTNTSLAHELWKVPLPPKNITAPSRPPPGLTGQKPPLSTWDNSPLRVGGGWGNSDARYTPGSSWGESSSGRITNWLVLKNLTPQIDGSTLRTLCMQHGPLITFHLNLPHGNALVRYSSKEEVVKAQKSLHMCVLGNTTILAEFASEEEISRFFAQSQSLTPSPGWQSLGSSQSRLGSLDCSHSFSSRTDVNHWNGAGLSGANCGDLHGTSLWGTPHYSTSLWGPPSSDPRGISSPSPINAFLSVDHLGGGGESM
notes: Endogenous protein pulled down from neuronal lysate with GW182 antiserum 18033 (gift of M. Fritzler) on protein G beads; also called TNRC6a; P-body component GW182
